The target of series [1] is T1, Drosophila melanogaster full-length secreted semaphorin-2a (Sema2a_(full)) (Drosophila melanogaster, UniProt Q24323 26-724).
T1 construct: Semaphorin-2a, Drosophila melanogaster, residues 26D-724V; Disulfide-linked dimer in solution; source: HEK293T (37 °C), transient transfection, purified (HisTrap, SEC)
T1 sequence (looked up): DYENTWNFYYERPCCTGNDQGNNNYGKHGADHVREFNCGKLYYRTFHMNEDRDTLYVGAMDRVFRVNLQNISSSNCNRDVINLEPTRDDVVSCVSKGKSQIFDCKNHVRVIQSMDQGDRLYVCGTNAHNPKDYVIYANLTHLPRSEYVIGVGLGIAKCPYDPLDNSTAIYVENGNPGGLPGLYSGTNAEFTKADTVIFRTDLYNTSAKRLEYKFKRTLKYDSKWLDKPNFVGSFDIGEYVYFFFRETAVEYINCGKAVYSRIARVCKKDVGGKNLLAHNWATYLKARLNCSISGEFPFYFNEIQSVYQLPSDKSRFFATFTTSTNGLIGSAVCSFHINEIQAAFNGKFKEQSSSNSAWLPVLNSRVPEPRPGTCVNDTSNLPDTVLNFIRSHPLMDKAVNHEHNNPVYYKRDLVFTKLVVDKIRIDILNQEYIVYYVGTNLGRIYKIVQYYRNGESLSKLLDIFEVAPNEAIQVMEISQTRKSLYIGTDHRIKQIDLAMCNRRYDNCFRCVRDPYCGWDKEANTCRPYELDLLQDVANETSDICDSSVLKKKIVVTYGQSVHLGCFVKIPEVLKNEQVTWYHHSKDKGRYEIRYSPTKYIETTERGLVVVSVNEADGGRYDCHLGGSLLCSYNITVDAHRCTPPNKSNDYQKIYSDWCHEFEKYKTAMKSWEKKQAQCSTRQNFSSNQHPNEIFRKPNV
The series is described as follows: MST; plexin-mVenus kept constant, unlabelled semaphorin titrated (1:1 dilution series); 25 °C; 15 mM HEPES pH 7.4, 150 mM NaCl, 2 mM CaCl2, 0.005% Tween-20; 1 h incubation at room temperature; apparent Kd. The settings on record: both partners purified.

The target in series [2] is T2, mouse Sema3A (residues 26–730, furin sites mutated) with C-terminal 3C-Avi-His6 tag (mouse, UniProt O08665 26-730, R551A (printed: R551, 555A) | R555A (printed: R551, 555A)).
T2 construct: Semaphorin-3A, mouse, residues 26-730, furin cleavage sites mutated (R551, 555A); also called Sema3A-His6; source: HEK293T, transient co-transfection, secreted into conditioned medium; not shown: His6, C-terminal, kept
T2 sequence (looked up): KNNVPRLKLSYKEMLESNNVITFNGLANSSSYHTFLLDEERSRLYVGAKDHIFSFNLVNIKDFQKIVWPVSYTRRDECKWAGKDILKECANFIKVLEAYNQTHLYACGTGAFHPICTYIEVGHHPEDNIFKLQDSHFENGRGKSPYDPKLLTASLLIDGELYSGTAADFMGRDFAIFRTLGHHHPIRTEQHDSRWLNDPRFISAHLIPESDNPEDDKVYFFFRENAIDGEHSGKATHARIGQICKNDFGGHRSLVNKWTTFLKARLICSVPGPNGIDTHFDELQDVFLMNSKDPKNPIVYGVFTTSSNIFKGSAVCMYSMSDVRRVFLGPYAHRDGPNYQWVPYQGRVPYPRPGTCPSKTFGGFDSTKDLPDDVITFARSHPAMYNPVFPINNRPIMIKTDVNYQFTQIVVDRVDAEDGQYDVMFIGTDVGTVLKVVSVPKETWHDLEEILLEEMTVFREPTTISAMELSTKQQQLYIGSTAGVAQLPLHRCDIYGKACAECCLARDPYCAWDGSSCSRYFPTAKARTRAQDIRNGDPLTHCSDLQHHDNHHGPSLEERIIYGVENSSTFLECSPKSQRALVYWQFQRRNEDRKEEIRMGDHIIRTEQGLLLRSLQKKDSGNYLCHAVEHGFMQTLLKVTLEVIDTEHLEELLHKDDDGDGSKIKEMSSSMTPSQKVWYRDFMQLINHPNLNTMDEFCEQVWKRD
Description: pull-down; HEK293T co-transfected with a His6-tagged and a TwinStrep-tagged semaphorin; conditioned medium 5 days post transfection; two-step affinity chromatography (HisTrap, then StrepTactin); western blot and SDS-PAGE of flow-through and eluate. The settings on record: partners not purified. (In western blotting, separated proteins are transferred to a membrane and probed.)

Series [3] concerns the molecule itself. The series is described as follows: crystal structure; sitting-drop vapour diffusion at 20 °C; data at 100 K.

Experimental findings from article PMC6695400, “Diversity of oligomerization in Drosophila semaphorins suggests a mechanism of functional fine-tuning” (Nature Communications, 2019) are described below.

B1: Drosophila melanogaster PlexB1–4-mVenus (receptor, UniProt Q9V4A7 35-730, looked up)
chain: EELPAQALSPLNDIVAQFNLPSIPVQSTASSYGNRSIGNNIESVRDSQSKNYFTHMSFDFMHNVLFAGATNKILKLNENLRVLAEAVTGPLHDSPQCHAGGCPEDIETSLVNNFNKILVVSYAHDGILIACGSIRQGACEIYSLPRFPATPQFFAVPLAANDENASTYAFVGPARYAWKEEDILYVGTTFTNVGDYRHDVPAISSRRLDDLNYAEFSIQQSIINIDVKYRDHFLVDYIYGFNSSEYAYFIIVQKKSHLADEAGYVTRLARICITDPNYDSYTEITVQCTATENNVDYNIVRDAKVTPASHKLAQKMGIKKDDHVLVTVFSPSREISNQPESKSAMCIYSIKDIEDMFIENIHLCFNGTTKDRNLGYISGTINDGRCPIVGSLGNIYNFCSVGLKISGVSPITAHALFHFDNVSVTSVTATSTTDQQHSLAFLGTNMGVIKKVLLSGQSPGEYEEIVVDAGNRILPNTMMSPKKDFLYVLSQRKITKLRIEHCSVYTNCSACLESRDPFCGWCSLEKRCTVRSTCQRDTSASRWLSLGSGQQCIEFESIIPEKIPISELSHLHLIIRTLPEPFNAKYRCVFGNSTPIDAEILENGLGCATPPLDERPLIPTNTDHILVPLSVRSSETNKDFVSRNFAFFDCSHHGNCQECLQSSWGCNWCIFDNKCVHKSLQCRNIENAVSTVGHCP
notes: Plexin B, Drosophila melanogaster, domains 1-4 of the ectodomain, residues 35E-730P; source: High Five cells (Trichoplusia ni), baculovirus (pBacPAK9, GP64 signal peptide), purified (HisTrap, SEC); not shown: mVenus, C-terminal, kept
As for B1, the Kd in series [1] is 25 nM.

B2: mouse Sema3C (residues 22–711, furin sites mutated) with C-terminal TwinStrep tag (ligand, UniProt Q62181 22-711, looked up)
chain: SSQPQARVYLTFDELRETKTSEYFSLSHQQLDYRILLMDEDQDRIYVGSKDHILSLNINNISQEPLSVFWPASTIKVEECKMAGKDPTHGCGNFVRVIQTFNRTHLYVCGSGAFSPVCTYLNRGRRSEDQVFMIDSKCESGKGRCSFNPNVNTVSVMINEELFSGMYIDFMGTDAAIFRSLTKRNAVRTDQHNSKWLSEPMFVDAHVIPDGTDPNDAKVYFFFKERLTDNNRSTKQIHSMIARICPNDTGGQRSLVNKWTTFLKARLVCSVTDEDGPETHFDELEDVFLLETDNPRTTLVYGIFTTSSSVFKGSAVCVYHLSDIQTVFNGPFAHKEGPNHQLISYQGRIPYPRPGTCPGGAFTPNMRTTKDFPDDVVTFIRNHPLMYNSIYPIHRRPLIVRIGTDYKYTKIAVDRVNAADGRYHVLFLGTDRGTVQKVVVLPTNSSASGELILEELEVFKNHVPITTMKISSKKQQLYVSSNEGVSQVSLHRCHIYGTACADCCLARDPYCAWDGHSCSRFYPTGKARSRAQDVRHGNPLTQCRGFNLKAYRNAAEIVQYGVRNNSTFLECAPKSPQASIKWLLQKDKDRRKEVKLNERIIATSQGLLIRSVQDSDQGLYHCIATENSFKQTIAKINFKVLDSEMVAVVTDKWSPWTWAGSVRALPFHPKDILGAFSHSEMQLINQYCKD
notes: Semaphorin-3C, mouse, residues 22-711, furin cleavage sites mutated (R548, 552A); also called Sema3C-TwinStrep; source: HEK293T, transient co-transfection, secreted into conditioned medium; not shown: TwinStrep, C-terminal, kept
As a reminder, the stoichiometry N is the number of molecules, sites or subunits per partner or assembly. As to B2, the “stoichiometry N” value in series [2] was found to be 1.

B3: Drosophila melanogaster Sema2a1–3 (sema, PSI and Ig-like domains) (domain or fragment, UniProt Q24323 27-671, looked up)
chain: YENTWNFYYERPCCTGNDQGNNNYGKHGADHVREFNCGKLYYRTFHMNEDRDTLYVGAMDRVFRVNLQNISSSNCNRDVINLEPTRDDVVSCVSKGKSQIFDCKNHVRVIQSMDQGDRLYVCGTNAHNPKDYVIYANLTHLPRSEYVIGVGLGIAKCPYDPLDNSTAIYVENGNPGGLPGLYSGTNAEFTKADTVIFRTDLYNTSAKRLEYKFKRTLKYDSKWLDKPNFVGSFDIGEYVYFFFRETAVEYINCGKAVYSRIARVCKKDVGGKNLLAHNWATYLKARLNCSISGEFPFYFNEIQSVYQLPSDKSRFFATFTTSTNGLIGSAVCSFHINEIQAAFNGKFKEQSSSNSAWLPVLNSRVPEPRPGTCVNDTSNLPDTVLNFIRSHPLMDKAVNHEHNNPVYYKRDLVFTKLVVDKIRIDILNQEYIVYYVGTNLGRIYKIVQYYRNGESLSKLLDIFEVAPNEAIQVMEISQTRKSLYIGTDHRIKQIDLAMCNRRYDNCFRCVRDPYCGWDKEANTCRPYELDLLQDVANETSDICDSSVLKKKIVVTYGQSVHLGCFVKIPEVLKNEQVTWYHHSKDKGRYEIRYSPTKYIETTERGLVVVSVNEADGGRYDCHLGGSLLCSYNITVDAHRCTPPNK
notes: Semaphorin-2a, Drosophila melanogaster, sema-PSI-Ig, residues 27Y-671K; Disulfide-linked dimer in the crystal; source: HEK293S-GnTI- or HEK293T with kifunensine, transient transfection, purified (HisTrap, SEC)
With B3, the binding result in series [3] was “binds”.
